Test results taken from patent US20130171163A1 (published 2013).

B1: GST-cLAR fusion protein (other, UniProt P10586 1285-1907, looked up)
chain: KRKRTHSPSSKDEQSIGLKDSLLAHSSDPVEMRRLNYQTPGMRDHPPIPITDLADNIERLKANDGLKFSQEYESIDPGQQFTWENSNLEVNKPKNRYANVIAYDHSRVILTSIDGVPGSDYINANYIDGYRKQNAYIATQGPLPETMGDFWRMVWEQRTATVVMMTRLEEKSRVKCDQYWPARGTETCGLIQVTLLDTVELATYTVRTFALHKSGSSEKRELRQFQFMAWPDHGVPEYPTPILAFLRRVKACNPLDAGPMVVHCSAGVGRTGCFIVIDAMLERMKHEKTVDIYGHVTCMRSQRNYMVQTEDQYVFIHEALLEAATCGHTEVPARNLYAHIQKLGQVPPGESVTAMELEFKLLASSKAHTSRFISANLPCNKFKNRLVNIMPYELTRVCLQPIRGVEGSDYINASFLDGYRQQKAYIATQGPLAESTEDFWRMLWEHNSTIIVMLTKLREMGREKCHQYWPAERSARYQYFVVDPMAEYNMPQYILREFKVTDARDGQSRTIRQFQFTDWPEQGVPKTGEGFIDFIGQVHKTKEQFGQDGPITVHCSAGVGRTGVFITLSIVLERMRYEGVVDMFQTVKTLRTQRPAMVQTEDQYQLCYRAALEYLGSFDHYAT
notes: domain: cytoplasmic LAR (cLAR); The fusion was immobilized on glutathione-Sepharose beads and incubated with HUVEC lysates; not shown: Glutathione-S-transferase (GST) tag
B2: VEGFR3 (receptor, human, UniProt P35916 25-1363, looked up)
chain: YSMTPPTLNITEESHVIDTGDSLSISCRGQHPLEWAWPGAQEAPATGDKDSEDTGVVRDCEGTDARPYCKVLLLHEVHANDTGSYVCYYKYIKARIEGTTAASSYVFVRDFEQPFINKPDTLLVNRKDAMWVPCLVSIPGLNVTLRSQSSVLWPDGQEVVWDDRRGMLVSTPLLHDALYLQCETTWGDQDFLSNPFLVHITGNELYDIQLLPRKSLELLVGEKLVLNCTVWAEFNSGVTFDWDYPGKQAERGKWVPERRSQQTHTELSSILTIHNVSQHDLGSYVCKANNGIQRFRESTEVIVHENPFISVEWLKGPILEATAGDELVKLPVKLAAYPPPEFQWYKDGKALSGRHSPHALVLKEVTEASTGTYTLALWNSAAGLRRNISLELVVNVPPQIHEKEASSPSIYSRHSRQALTCTAYGVPLPLSIQWHWRPWTPCKMFAQRSLRRRQQQDLMPQCRDWRAVTTQDAVNPIESLDTWTEFVEGKNKTVSKLVIQNANVSAMYKCVVSNKVGQDERLIYFYVTTIPDGFTIESKPSEELLEGQPVLLSCQADSYKYEHLRWYRLNLSTLHDAHGNPLLLDCKNVHLFATPLAASLEEVAPGARHATLSLSIPRVAPEHEGHYVCEVQDRRSHDKHCHKKYLSVQALEAPRLTQNLTDLLVNVSDSLEMQCLVAGAHAPSIVWYKDERLLEEKSGVDLADSNQKLSIQRVREEDAGRYLCSVCNAKGCVNSSASVAVEGSEDKGSMEIVILVGTGVIAVFFWVLLLLIFCNMRRPAHADIKTGYLSIIMDPGEVPLEEQCEYLSYDASQWEFPRERLHLGRVLGYGAFGKVVEASAFGIHKGSSCDTVAVKMLKEGATASEHRALMSELKILIHIGNHLNVVNLLGACTKPQGPLMVIVEFCKYGNLSNFLRAKRDAFSPCAEKSPEQRGRFRAMVELARLDRRRPGSSDRVLFARFSKTEGGARRASPDQEAEDLWLSPLTMEDLVCYSFQVARGMEFLASRKCIHRDLAARNILLSESDVVKICDFGLARDIYKDPDYVRKGSARLPLKWMAPESIFDKVYTTQSDVWSFGVLLWEIFSLGASPYPGVQINEEFCQRLRDGTRMRAPELATPAIRRIMLNCWSGDPKARPAFSELVEILGDLLQGRGLQEEEEVCMAPRSSQSSEEGSFSQVSTMALHIAQADAEDSPPSLQRHSLAARYYNWVSFPGCLARGAETRGSSRMKTFEEFPMTPTTYKGSVDNQTDSGMVLASEEFEQIESRHRQESGFSCKGPGQNVAVTRAHPDSQGRRRRPERGARGGQVFYNSEYGELSEPSEEDHCSPSARVTFFTDNSY
notes: Endogenous protein in HUVEC lysates, with or without VEGF treatment (20 ng/ml, 10 min)

Assays:
VEGFR2 = target: T1, VEGFR2 (human, UniProt P35968 20-1356); assay: GST pulldown from HUVEC lysates, Western blot with anti-VEGFR2
T1 construct: Endogenous protein in HUVEC lysates, with or without VEGF treatment (20 ng/ml, 10 min)
T1 sequence (P35968 20-1356 limits assumed): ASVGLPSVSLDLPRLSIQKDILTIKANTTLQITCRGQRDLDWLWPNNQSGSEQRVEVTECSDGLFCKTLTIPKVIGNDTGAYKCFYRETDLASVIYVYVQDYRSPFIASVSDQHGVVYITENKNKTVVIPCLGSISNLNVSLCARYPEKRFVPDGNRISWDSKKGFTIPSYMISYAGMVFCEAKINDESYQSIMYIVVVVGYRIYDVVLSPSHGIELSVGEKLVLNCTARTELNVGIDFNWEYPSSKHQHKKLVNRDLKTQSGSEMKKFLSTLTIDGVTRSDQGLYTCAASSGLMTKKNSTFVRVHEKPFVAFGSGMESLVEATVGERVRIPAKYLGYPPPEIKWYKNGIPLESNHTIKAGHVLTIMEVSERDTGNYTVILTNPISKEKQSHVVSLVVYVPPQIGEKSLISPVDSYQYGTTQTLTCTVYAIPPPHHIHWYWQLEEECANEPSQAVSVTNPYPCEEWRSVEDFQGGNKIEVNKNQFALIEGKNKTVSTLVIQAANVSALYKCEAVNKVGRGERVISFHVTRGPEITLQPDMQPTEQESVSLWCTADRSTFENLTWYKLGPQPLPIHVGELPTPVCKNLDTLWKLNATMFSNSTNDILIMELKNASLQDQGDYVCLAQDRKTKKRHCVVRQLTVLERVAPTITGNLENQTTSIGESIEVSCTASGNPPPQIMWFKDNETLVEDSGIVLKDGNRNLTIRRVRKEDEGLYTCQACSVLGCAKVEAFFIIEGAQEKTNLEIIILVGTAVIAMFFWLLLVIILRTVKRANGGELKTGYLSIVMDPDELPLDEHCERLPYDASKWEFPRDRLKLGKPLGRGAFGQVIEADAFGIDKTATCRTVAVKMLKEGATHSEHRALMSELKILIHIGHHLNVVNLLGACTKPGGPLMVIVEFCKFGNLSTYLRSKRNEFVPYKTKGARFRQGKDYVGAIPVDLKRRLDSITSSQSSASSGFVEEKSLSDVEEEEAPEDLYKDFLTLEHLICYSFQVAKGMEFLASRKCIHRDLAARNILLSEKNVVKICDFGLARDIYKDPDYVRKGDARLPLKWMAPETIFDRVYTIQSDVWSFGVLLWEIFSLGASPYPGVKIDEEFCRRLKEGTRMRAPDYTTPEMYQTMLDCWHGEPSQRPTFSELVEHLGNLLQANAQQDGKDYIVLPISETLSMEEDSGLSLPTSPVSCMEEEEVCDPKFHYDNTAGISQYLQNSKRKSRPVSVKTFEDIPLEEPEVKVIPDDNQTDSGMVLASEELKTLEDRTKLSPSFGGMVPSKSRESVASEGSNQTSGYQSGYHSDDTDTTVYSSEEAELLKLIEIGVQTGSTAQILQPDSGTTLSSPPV
Method: (§1) C, Lysates from HUVECs stimulated with or without VEGF (20 ng/ml) for 10 min were immunoprecipitated with polyclonal antibodies against anti-cLAR or control goat IgG, followed by immunoblotting with anti-VEGFR2 (top), VEGFR3 (middle) or anti-cLAR antibody (bottom). D, Equal amounts of GST or GST-cLAR fusion protein were immobilized on glutathione-Sepharose beads and then incubated with HUVEC lysates containing equal amount of protein. GST or GST-cLAR-associated proteins were analyzed by Western blotting using anti-IGF-1Rβ antibody. The same membrane was reprobed with anti-GST antibody (E), anti-VEGFR2 (F, top) or anti-VEGFR3 (F, bottom) antibodies.

VEGFR3 = target: B2; assay: GST pulldown from HUVEC lysates, Western blot with anti-VEGFR3
Method: as §1

[1] = target: T2, leukocyte antigen-related protein tyrosine phosphatase (LAR) (human, UniProt P10586 30-1907, limits assumed); assay: co-immunoprecipitation from HUVEC lysates with anti-cLAR antibody, Western blot with anti-VEGFR3
T2 construct: Endogenous protein in HUVEC lysates; The background section describes LAR as a non-covalent complex of a 150-kDa E subunit and an 85-kDa P subunit, cleaved from a 200-kDa proprotein; In the functional assays, full-length human LAR was overexpressed from adenovirus (AdLAR) or knocked down with siRNA; also called LAR PTP; leukocyte antigen-related (LAR) PTP
Method: as §1

| binding result (VEGFR2) | binding result (VEGFR3) | binding result [1] | Binder |
| --- | --- | --- | --- |
| no binding | no binding | – | B1 |
| – | – | no binding | B2 |
